In publication PMC5283830, “Suppression of C9orf72 RNA repeat-induced neurotoxicity by the ALS-associated RNA-binding protein Zfp106”:

Assays:
Zfp106 [1] = target: T1, Zfp106 (Mus musculus, UniProt O88466 1-1888); assay: competition; 30x molar excess vs r(GGGGCC)4 probe; EMSA: 40 mM Tris-Cl pH 8.0, 30 mM KCl, 1 mM MgCl2, 0.01% NP-40, 1 mM DTT, 5% glycerol, 10 ug/ml BSA, 30 min room temperature; pull-down: nuclear extract in 50 mM Tris pH 7.4, 150 mM NaCl, 1 mM EDTA, 0.5% NP-40, 4 h at 4 C; details: protein: recombinant, tags: N-terminal 3xFLAG-2xSTREP
MBNL1 [2] = target: T2, MBNL1 (Mus musculus, UniProt G3X9Q0 1-381); assay: EMSA; 1 mM Mg2+; competed by 30x unlabeled self; EMSA: 40 mM Tris-Cl pH 8.0, 30 mM KCl, 1 mM MgCl2, 0.01% NP-40, 1 mM DTT, 5% glycerol, 10 ug/ml BSA, 30 min room temperature; pull-down: nuclear extract in 50 mM Tris pH 7.4, 150 mM NaCl, 1 mM EDTA, 0.5% NP-40, 4 h at 4 C; details: protein: recombinant; tags: N-terminal 3xFLAG-2xSTREP; label: 5' 32P (probe)
T2 sequence: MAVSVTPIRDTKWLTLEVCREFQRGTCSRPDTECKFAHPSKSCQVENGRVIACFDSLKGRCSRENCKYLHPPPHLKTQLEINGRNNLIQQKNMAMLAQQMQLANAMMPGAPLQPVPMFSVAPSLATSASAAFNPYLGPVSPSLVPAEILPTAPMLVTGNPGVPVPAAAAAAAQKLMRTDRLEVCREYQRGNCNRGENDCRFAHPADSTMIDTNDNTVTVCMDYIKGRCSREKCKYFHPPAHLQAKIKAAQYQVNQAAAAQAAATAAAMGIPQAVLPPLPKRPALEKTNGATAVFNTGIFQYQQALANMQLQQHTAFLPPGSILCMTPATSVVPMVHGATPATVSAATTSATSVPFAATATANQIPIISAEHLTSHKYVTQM

MBNL1 [3] = target: T2, MBNL1; assay: EMSA; 1 mM Mg2+; EMSA: 40 mM Tris-Cl pH 8.0, 30 mM KCl, 1 mM MgCl2, 0.01% NP-40, 1 mM DTT, 5% glycerol, 10 ug/ml BSA, 30 min room temperature; pull-down: nuclear extract in 50 mM Tris pH 7.4, 150 mM NaCl, 1 mM EDTA, 0.5% NP-40, 4 h at 4 C; details: protein: recombinant; tags: N-terminal 3xFLAG-2xSTREP; label: 5' 32P (probe)
Zfp106 [4] = target: T1, Zfp106; assay: EMSA; 1 mM Mg2+; competed by 30x unlabeled self; EMSA: 40 mM Tris-Cl pH 8.0, 30 mM KCl, 1 mM MgCl2, 0.01% NP-40, 1 mM DTT, 5% glycerol, 10 ug/ml BSA, 30 min room temperature; pull-down: nuclear extract in 50 mM Tris pH 7.4, 150 mM NaCl, 1 mM EDTA, 0.5% NP-40, 4 h at 4 C; details: protein: recombinant; tags: N-terminal 3xFLAG-2xSTREP; label: 5' 32P (probe)

T1 sequence (O88466 whole entry): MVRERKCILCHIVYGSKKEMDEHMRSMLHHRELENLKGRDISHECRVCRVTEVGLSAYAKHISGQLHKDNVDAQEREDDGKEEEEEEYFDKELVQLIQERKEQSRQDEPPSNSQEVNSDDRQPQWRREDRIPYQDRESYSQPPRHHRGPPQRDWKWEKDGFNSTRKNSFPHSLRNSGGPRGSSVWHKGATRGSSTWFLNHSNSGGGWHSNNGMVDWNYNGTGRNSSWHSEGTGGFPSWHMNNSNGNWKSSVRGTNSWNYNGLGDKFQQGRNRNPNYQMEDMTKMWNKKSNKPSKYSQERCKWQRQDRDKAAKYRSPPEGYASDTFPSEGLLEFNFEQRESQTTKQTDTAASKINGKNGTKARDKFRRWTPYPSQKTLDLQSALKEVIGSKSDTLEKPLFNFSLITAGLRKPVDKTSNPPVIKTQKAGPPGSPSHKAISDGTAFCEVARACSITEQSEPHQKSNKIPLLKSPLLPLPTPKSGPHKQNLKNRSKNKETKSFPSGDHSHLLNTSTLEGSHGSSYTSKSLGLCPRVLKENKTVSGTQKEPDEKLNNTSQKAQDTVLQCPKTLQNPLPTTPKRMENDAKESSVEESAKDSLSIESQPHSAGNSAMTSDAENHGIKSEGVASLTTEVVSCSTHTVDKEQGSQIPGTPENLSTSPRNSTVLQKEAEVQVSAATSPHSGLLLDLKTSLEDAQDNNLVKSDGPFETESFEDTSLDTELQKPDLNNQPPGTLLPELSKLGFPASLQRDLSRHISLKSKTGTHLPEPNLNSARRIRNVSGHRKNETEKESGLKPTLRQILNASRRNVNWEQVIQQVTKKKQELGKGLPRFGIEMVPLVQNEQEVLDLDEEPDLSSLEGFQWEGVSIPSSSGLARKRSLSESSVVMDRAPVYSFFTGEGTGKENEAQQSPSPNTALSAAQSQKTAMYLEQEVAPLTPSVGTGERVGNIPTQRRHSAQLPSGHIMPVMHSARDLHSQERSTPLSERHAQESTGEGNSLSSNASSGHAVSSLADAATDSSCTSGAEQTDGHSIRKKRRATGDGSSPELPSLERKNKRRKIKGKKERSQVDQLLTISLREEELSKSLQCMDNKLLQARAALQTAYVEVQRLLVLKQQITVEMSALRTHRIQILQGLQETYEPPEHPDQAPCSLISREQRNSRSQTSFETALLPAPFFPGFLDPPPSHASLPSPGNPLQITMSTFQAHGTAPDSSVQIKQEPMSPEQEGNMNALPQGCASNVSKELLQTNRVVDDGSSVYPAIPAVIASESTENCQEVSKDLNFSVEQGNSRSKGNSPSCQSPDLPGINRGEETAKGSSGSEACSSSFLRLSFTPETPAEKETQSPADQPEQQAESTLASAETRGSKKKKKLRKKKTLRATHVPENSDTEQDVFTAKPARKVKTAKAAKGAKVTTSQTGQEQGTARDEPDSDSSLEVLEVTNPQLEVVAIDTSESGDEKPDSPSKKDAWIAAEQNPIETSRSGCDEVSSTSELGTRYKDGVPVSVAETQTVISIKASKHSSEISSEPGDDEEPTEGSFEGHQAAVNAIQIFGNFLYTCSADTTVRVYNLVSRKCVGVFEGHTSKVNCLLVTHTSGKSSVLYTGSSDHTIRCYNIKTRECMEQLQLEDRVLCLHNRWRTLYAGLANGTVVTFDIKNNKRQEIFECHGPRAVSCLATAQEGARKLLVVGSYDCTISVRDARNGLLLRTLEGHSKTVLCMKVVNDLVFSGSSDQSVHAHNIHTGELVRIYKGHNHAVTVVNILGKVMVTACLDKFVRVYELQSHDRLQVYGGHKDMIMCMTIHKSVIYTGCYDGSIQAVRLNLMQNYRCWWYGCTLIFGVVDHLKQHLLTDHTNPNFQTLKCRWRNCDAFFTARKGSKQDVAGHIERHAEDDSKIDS

GAGGCCGGGACCGAGACCGAGGCC (ssRNA) [mutated r(GGGGCC)4 (mut)]: no binding (Zfp106 [1]).

CUGCUGCUGCUGCUGCUGCUGCUG (ssRNA) [r(CUG)8]: binds (MBNL1 [2]); no binding (Zfp106 [1]; label: 5' 32P (probe)).

GGGGCCGGGGCCGGGGCCGGGGCC (ssRNA) [r(GGGGCC)4]: no binding (MBNL1 [3]); binds (Zfp106 [4]).

AAAACCAAAACCAAAACCAAAACC (ssRNA) [r(AAAACC)4]: no binding (Zfp106 [1]).
